Source: patent publication US20080166293A1 (UAB RESEARCH FOUNDATION, published 2008)
Values belong to the binder of their own block, whether it stands above or below them.

Key:
[1] = target: T1, human transferrin receptor (hTfR) (human, UniProt P02786 1-760); test: synthetic peptide added to CEF+hTfR cells before HAIYPRH phage; titer of bound phage
T1 construct: whole, on cells; Always presented on CEF+hTfR cells; also called CEF+hTfR cells
Description: (§1) Binding and Competition Studies: Purified phage populations were amplified and were verified to be homogenous through DNA sequencing. Cells were prepared for binding as was described for biopanning procedures. Preparations of plaque-purified and titered phage (1×10¹¹) were incubated in serum-free Opti-MEM on either CEF or CEF+hTfR cells at 4° C. for 1 hour. The cells were washed repeatedly with Opti-MEM and bound phage were eluted with low pH buffer and subsequently titered. […] Multiple trials were completed and average titers and standard deviations determined. The titers determined on CEF+hTfR cells were divided by the titers determined on CEF cells and […] fold over control data points.

[2] = target: T1, human transferrin receptor (hTfR); test: synthetic peptide added to CEF+hTfR cells before … phage; titer of bound phage
Description: as §1

T1 sequence (P02786 whole entry): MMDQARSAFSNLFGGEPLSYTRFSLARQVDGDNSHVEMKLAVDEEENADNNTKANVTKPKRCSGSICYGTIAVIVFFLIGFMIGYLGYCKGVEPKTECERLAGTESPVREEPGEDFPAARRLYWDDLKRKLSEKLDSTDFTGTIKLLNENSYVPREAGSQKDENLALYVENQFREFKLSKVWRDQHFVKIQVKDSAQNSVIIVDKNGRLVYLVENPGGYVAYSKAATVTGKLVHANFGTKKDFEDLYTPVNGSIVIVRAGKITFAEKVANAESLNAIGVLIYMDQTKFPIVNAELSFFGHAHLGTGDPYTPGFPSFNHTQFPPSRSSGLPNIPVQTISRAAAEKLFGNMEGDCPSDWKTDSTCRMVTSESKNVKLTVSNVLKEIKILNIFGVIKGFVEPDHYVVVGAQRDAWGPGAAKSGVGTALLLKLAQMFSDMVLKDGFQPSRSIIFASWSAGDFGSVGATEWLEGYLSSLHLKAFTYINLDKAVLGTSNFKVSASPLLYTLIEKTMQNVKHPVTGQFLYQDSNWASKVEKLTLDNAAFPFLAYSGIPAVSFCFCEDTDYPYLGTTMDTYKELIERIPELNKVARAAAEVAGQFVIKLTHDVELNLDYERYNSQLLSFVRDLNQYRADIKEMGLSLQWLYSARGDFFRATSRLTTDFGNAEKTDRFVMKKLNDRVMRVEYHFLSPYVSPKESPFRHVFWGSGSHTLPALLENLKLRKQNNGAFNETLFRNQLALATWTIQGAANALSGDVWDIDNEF

- binding result [1]: binds
B1: HAIYPRH (Seq. ID No. 1) peptide (peptide)
peptide: HAIYPRH
notes: Synthetic peptide, HPLC purified; also called 7-mer

- binding result [2]: binds
B2: THRPPMWSPVWP (Seq. ID No. 2) peptide (peptide)
peptide: THRPPMWSPVWP
notes: Synthetic peptide, HPLC purified; also called 12-mer
